Residue numbers refer to the chain shown, from its start. Blank lines part the entries; values can stand above or below the binder they belong to.
Key:
[1] = target: T1, human interleukin-2 receptor α-chain (IL-2Rα; CD25), recombinant protein (human, UniProt P01589 22-240, limits assumed); experiment: P.E. off-rate SPR
T1 construct: also called huIL2R-a; hIL-2RA
T1 sequence: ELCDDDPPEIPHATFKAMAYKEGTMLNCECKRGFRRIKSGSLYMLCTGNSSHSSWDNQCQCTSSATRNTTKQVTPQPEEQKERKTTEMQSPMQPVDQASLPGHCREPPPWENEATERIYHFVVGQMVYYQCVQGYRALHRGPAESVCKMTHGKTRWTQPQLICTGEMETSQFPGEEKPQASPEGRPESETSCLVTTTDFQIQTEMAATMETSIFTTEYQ
Summary of the method: (§1)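 Recombinant receptor was amine-coupled in acetate buffer onto a CM5 carboxymethyl dextran chip at approximately 2500 RU. VHH-containing periplasmic extracts were injected at 30 uL/min, and dissociation was followed for 120s to give off-rates.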

[2] = target: T1, human interleukin-2 receptor α-chain …; experiment: P.E. binding ELISA
Summary of the method: (§2)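 Human or mouse IL-2Rα, IL-2Rβ or IL-2Rγ protein coated directly overnight at 4° C, blocked with 4% Marvel/PBS for 1 hour.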

[3] = target: T2, human interleukin-2 receptor β-chain (IL-2Rβ; CD122), recombinant protein (human, UniProt P14784 27-240); experiment: P.E. off-rate SPR
T2 construct: also called human IL-2R subunit CD122
T2 sequence: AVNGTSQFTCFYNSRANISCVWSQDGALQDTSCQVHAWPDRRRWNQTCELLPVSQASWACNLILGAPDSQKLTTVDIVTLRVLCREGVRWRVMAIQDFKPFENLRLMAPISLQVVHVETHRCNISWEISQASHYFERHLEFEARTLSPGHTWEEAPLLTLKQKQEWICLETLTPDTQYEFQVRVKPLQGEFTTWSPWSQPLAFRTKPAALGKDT
Summary of the method: as §1

[4] = target: T2, human interleukin-2 receptor β-chain …; experiment: P.E. binding ELISA
Summary of the method: as §2

[5] = target: T3, human IL-2Rγ (common cytokine receptor γ-chain) (human, UniProt P31785 23-262, limits assumed); experiment: binding ELISA, periplasmic extract on coated human IL-2Rγ
T3 construct: Recombinant human IL-2Rγ protein coated on the ELISA plate or immobilised on the CM5 chip; also called hu IL-2R; CD132
T3 sequence: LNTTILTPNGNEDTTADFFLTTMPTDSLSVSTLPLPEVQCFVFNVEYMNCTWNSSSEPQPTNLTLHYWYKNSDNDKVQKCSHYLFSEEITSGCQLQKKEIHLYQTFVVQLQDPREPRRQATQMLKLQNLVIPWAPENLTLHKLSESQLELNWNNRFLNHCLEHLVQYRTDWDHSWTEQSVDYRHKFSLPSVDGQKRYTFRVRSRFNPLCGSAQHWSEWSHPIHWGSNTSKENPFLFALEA
Experimental: (§3) In a binding ELISA, human or mouse IL-2Rα, IL-2Rβ and IL-2Rγ proteins were coated directly on maxisorp microtiter plates overnight at 4° C. Free binding sites were blocked using 4% Marvel in PBS for 1 hour. Next, 1:5 dilution of P.E. in 1% Marvel/PBS were added to wells and incubated for 1 hour. […] Binding specificity was determined based on O.D. at 450 nm values compared to negative controls.

mouse IL-2Rγ [6] = target: T4, mouse IL-2Rγ (mouse, UniProt P34902 23-263, limits assumed); experiment: SPR off-rate ranking, periplasmic extract over immobilised mouse IL-2Rγ
T4 construct: Recombinant mouse IL-2Rγ protein coated on the ELISA plate or immobilised on the CM5 chip; also called mo IL-2R
T4 sequence (looked up): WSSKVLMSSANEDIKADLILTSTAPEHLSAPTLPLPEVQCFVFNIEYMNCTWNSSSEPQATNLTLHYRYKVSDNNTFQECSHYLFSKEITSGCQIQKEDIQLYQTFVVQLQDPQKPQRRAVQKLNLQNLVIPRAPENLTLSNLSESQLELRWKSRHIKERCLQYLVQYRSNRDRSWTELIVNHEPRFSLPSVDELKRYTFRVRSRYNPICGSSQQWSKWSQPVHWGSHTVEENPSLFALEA
Experimental: (§4) SPR was performed to determine dissociation rates using Biacore 3000 instrument (GE Healthcare). Briefly, human and mouse IL-2R proteins were immobilized on carboxylmethyl dextran sensor chip (CM5) at approximately 2500 RUs using amine coupling in acetate buffer (GE Healthcare). The VHH-containing P.E. were loaded with a flow rate of 30 uL/min and the off-rates were measured over a 120s period.

[7] = target: T3, human IL-2Rγ (common cytokine receptor …); experiment: SPR off-rate ranking, periplasmic extract over immobilised human IL-2Rγ
Experimental: as §4

mouse IL-2Rγ [8] = target: T4, mouse IL-2Rγ; experiment: binding ELISA, periplasmic extract on coated mouse IL-2Rγ
Experimental: as §3

[9] = target: T5, human common cytokine receptor γ-chain (γc; IL-2Rγ; CD132), recombinant protein (human, UniProt P31785 23-262); experiment: P.E. binding ELISA
T5 construct: also called human IL-2R subunit CD132
T5 sequence: T3 sequence
Summary of the method: as §2

- koff [3]: 0.000141 s⁻¹
- OD450 nm [4]: 1.38 OD450 nm
B4: 16-MP02B08 VHH (periplasmic extract) (VHH)
VHH: EVQLVESGGGLVQAGGSLRLSCAASGRAIENYPVGWFRQAPGKEREFVAAITWISGSTLYADSVKGRFTISRDNAKNTVYLQMSSLKPEDTALYYCAAALKTITRGQNDYSYWGQGTQVTVSS
notes: soluble VHH in periplasmic extract

- koff [3]: 0.000419 s⁻¹
- OD450 nm [4]: 0.781 OD450 nm
B6: 22-MP03F12 VHH (periplasmic extract) (VHH)
VHH: EVQLVESGGGLVQAGGSLRLSCAASGSIFSINAMAWFRQVPGMERELVAAISRDGGASVYRDSVKGRFTISRDNSKNTVYLQMNTLKPEDTAIYVCAATRAIGWTARWITTDFDFWGQGTQVTVSS
notes: as for B4

- koff [3]: 0.00169 s⁻¹
- OD450 nm [4]: 0.581 OD450 nm
B7: 15-MP02E06 VHH (periplasmic extract) (VHH)
VHH: QVQLVESGGGSVQPGGSLRLSCAASGFTFSNYAMSWVRQAPGKGLEWVASITGFGRGTDYADSVKGRFTISRDNAEDTLYLQMNSLKPEDTAVYYCAKYSSSTYYPPTPARGRDYRGQGTQVTVSS
notes: as for B4

- koff [1]: 0.0206 s⁻¹
- OD450 nm [2]: 1.79 OD450 nm
B8: 6-MP01G05 VHH (periplasmic extract) (VHH)
VHH: QVQLQESGGGLVQAGGSLRLSCAASGRTFSSYAMGWFRQAPGKEREFVAVISWNVDNTEYTDSVKGRFTISRDNDKNMVYLQMNSLKPEDTAVYYCAADSIPLSSDMSPTATEYGYWGQGTQVTVSS
notes: as for B4

- koff [1]: 0.000639 s⁻¹
- OD450 nm [2]: 2.46 OD450 nm
B10: 10-MP05F03 VHH (periplasmic extract) (VHH)
VHH: QVQLVESGGGLVQAGGSLRLSCAASGIPFDNYAMGWFRQAPGKEREFVAARDLEGIITRYGDSVKGRFTISRGNAKNTVFLQMNSLKPEDTAVYYCAARDGGVVAGSRSSAQYNYWGQGTQVTVSS
notes: as for B4

- P.E. binding ELISA OD450 [5]: 0.485 OD450 nm
- koff [7]: 0.0027 s⁻¹
B14: FJ1427_P035MP07A12 (VHH)
VHH: QVQLQESGGGLVQAGGSLRLSCAASGRTLSRYAMGWFRQAPGSEREFVAASSWGGDTFYADSVEGRFTFSRDNAKNAVYLQMNSLQPEDTAAYYCAAAPTSFPTTAYSSSNSYAYWGQGTQVTVSS
notes: Tested as soluble VHH fragment in periplasmic extract (P.E.); also called Clone nr

- P.E. binding ELISA OD450 [5]: 0.858 OD450 nm
- koff [7]: 0.00485 s⁻¹
B15: FJ1427_P035MP07C11 (VHH)
VHH: B14 VHH with Q5V, G16A, S43K, F58Y, A92V, A97G, P103A
notes: as for B14

- koff [3]: 0.00105 s⁻¹
- OD450 nm [4]: 0.54 OD450 nm
B19: 23-MP06F03 VHH (periplasmic extract) (VHH)
VHH: QVQLVESGGGLVQAGGSLRLSCAVSGDVFVRYTMAWFRQAPGKEREFVASVTDSGRTTDYVHSVKGRFTVSRDNAKNTVYLQMNNLKPEDTAVYYCAANTDYFQIKSLDANTWGQGTQVTVSS
notes: as for B4

- koff [3]: 0.000471 s⁻¹
- OD450 nm [4]: 0.355 OD450 nm
B20: 24-MP06E05 VHH (periplasmic extract) (VHH)
VHH: QVQLVESGGELVQGGASLRLSCAASGRTFSNANMAWFRQAPEKEREFVALITWSSGSTLYADSVKGRFTISRDNARKMVYLQMNSLKPEDTAVYYCAADGPPYSGTYYRYDTYDYWGQGTQVTVSS
notes: as for B4

- OD450 nm [9]: 0.134 OD450 nm
B21: 35-MP07G01 VHH (periplasmic extract) (VHH)
VHH: QVQLQESGGGLVQGGGSLRLSCAASGGIFSSYAMGWFRQAPGKEREFVAAISRSGRSTNYADSVKGRFTISRDNAKSTVYLQMNSLKPEETAVYYCAAGRYYNSAYDPSPGDFGSWGHGTQVTVSS
notes: as for B4

The next lines start with the binder.

B1: 2-MP01A02 VHH (periplasmic extract) (VHH)
VHH: QVQLVESGGGLVQPGGSLRLSCATSGFTFRNNFMSWVRQAPGKGLEWVSTISYGGESTTYAESVKGRFTISRDNAKNTLYLQMNNLKPEDTAVYYCAKATSYDSIRSGSRGQGTQVTVSS
notes: as for B4
- koff [1]: 0.00153 s⁻¹
- OD450 nm [2]: 2.62 OD450 nm

B2: 8-MP01C12 VHH (periplasmic extract) (VHH)
VHH: B1 VHH with R30S, W47F, S63A, V93I, D103T, S107G, G108A, S109P
notes: as for B4
- koff [1]: 0.000383 s⁻¹
- OD450 nm [2]: 2.53 OD450 nm

B3: 5-MP01F05 VHH (periplasmic extract) (VHH)
VHH: EVQLVESGGGLVQAGGSLRLSCAASIRAFTTWSMAWFRQAPGKEREYVARINVSGSVTYYADFVKGRFTISRDNAKKTMYLEMNNLKPEDTALYYCAADRTGVGTNDYNYWGQGTQVTVSS
notes: as for B4
- koff [1]: 0.00042 s⁻¹
- OD450 nm [2]: 2.62 OD450 nm

B5: 18-MP03C03 VHH (periplasmic extract) (VHH)
VHH: QVQLVESGGGLVQPGGSLRLSCAISGGTLDSYGIGWVRQAPGKQREGVSCMSRSDDRTYYADSVKGRFTISKDSAKNTVYLQMTSLKPEDTAVYYCAAVDAYGCSLVQPTTYDFWGLGTQVTVSS
notes: as for B4
- koff [3]: 0.000594 s⁻¹
- OD450 nm [4]: 0.405 OD450 nm

B9: 17-MP02C09 VHH (periplasmic extract) (VHH)
VHH: QVQLQESGGGLVQAGGSLRLSCVASGSVSSINGMAWYRQGADNQRVLVAAISRVGNTAYGDSVKGRFTISRQNARNTVYLQMNSLKPEDTAVYYCNADSWGGDDYWGQGTQVTVSS
notes: as for B4
- koff [3]: 0.000848 s⁻¹
- OD450 nm [4]: 1.21 OD450 nm

B11: 19-MP03F08 VHH (periplasmic extract) (VHH)
VHH: EVQLVESGGGLVQTGGSLRLSCAASGGTFSRDAMAWFRQVPGKEREFVALISWSGATTNYADSVKGRFAISRDNGKNTVYLQMNRLKPADTAIYYCAADRRPMGSRSYFEPTEYDDWGQGTQVTVSS
notes: as for B4
- koff [3]: 0.000296 s⁻¹
- OD450 nm [4]: 0.245 OD450 nm

B12: 20-MP03F10 VHH (periplasmic extract) (VHH)
VHH: EVQLVESGGGLVQAGGSLRLSCAASGRDFSSYAMGWFRQAPGKEREFVVAITWTKRSTDFPDSVKGRFTISRDNAKNTVYLDMNSLKPEDTAVYYCASARGLPVTPLGDIIYWGEGTLVTVSS
notes: as for B4
- koff [3]: 0.000595 s⁻¹
- OD450 nm [4]: 0.497 OD450 nm

B13: FJ1427_P035MP07E11 (VHH)
VHH: B14 VHH with Q5V, S43K, A49T, S51N, F58Y, E64Q, A77T, A92V, P103A
notes: as for B14
- P.E. binding ELISA OD450 [5]: 0.398 OD450 nm
- koff (mouse IL-2Rγ [6]): 0.109 s⁻¹
- koff [7]: 0.00304 s⁻¹
- P.E. binding ELISA OD450 (mouse IL-2Rγ [8]): 0.045 OD450 nm

B16: FJ1427_P035MP07B12 (VHH)
VHH: EVQLVESGGGLVQAGGSLRLSCAASGRTLSRYAMGWFRQAPGKEREYVAIDSWGGDTFYADSVEGRFTFSRDNAKNEVYLQMNSLQPEDTAVYYCAGAPTSFATTAYSSSNSYRYWGQGTQVTVSS
notes: as for B14
- P.E. binding ELISA OD450 [5]: 1.79 OD450 nm
- koff (mouse IL-2Rγ [6]): 0.00766 s⁻¹
- koff [7]: 0.00153 s⁻¹
- P.E. binding ELISA OD450 (mouse IL-2Rγ [8]): 0.7 OD450 nm

B17: 3-MP01E03 VHH (periplasmic extract) (VHH)
VHH: QVQLVESGGGLVQAGGSLRLSCTASGRTLSSYSMAWFRQAADKGREFVTAISSSGVVTHVLDSVKGRFTISRDNAKNTVYLQMNSLQPEDTALYFCAGTASSYSTYEANYNYWGQGTLVTVSS
notes: as for B4
- koff [1]: 0.000799 s⁻¹
- OD450 nm [2]: 2.54 OD450 nm

B18: 26-MP06A07 VHH (periplasmic extract) (VHH)
VHH: B19 VHH with V5Q, V24A, D59E, H62D, V79A, V93I, K106R, A110L
notes: as for B4
- koff [3]: 0.000363 s⁻¹
- OD450 nm [4]: 1.03 OD450 nm
